The target in the assay is T1, Endothelin receptor type A (ET A) on cells (human, UniProt P25101 21-427).
T1 chain: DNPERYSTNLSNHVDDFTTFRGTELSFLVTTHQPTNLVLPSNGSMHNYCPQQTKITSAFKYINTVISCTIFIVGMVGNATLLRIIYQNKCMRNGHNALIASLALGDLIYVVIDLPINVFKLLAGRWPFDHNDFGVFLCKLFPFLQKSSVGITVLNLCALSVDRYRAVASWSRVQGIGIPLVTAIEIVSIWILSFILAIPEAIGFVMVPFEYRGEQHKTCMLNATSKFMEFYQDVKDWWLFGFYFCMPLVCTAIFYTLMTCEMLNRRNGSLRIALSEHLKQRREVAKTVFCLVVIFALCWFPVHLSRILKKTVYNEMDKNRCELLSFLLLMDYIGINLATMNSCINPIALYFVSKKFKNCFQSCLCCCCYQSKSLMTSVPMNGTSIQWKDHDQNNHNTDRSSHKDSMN
Description: cell-based or functional assay.

B1: 발굴항체 (anti-ET A human antibody, VH SEQ ID NO 12 / VL SEQ ID NO 13) fused to Cκ, scAb format (scFv, V domains shown)
VH: EVQLVESGAEVRKPGASVKVSCKASGYTFTSSDINWIRQATGQGLEWMGYMNPKNGNTDYAQKFQGRISMTRDSSISTAYMELSSLRSEDTAVYYCAKDRYGSGTYGFGMDVWGPGTLVTVS
VL: DIVMTQSPSAMSASVGDRVSITCRASQGINNYLAWFQQKPGKVPKRLMDVGSILQSGIPSRFRGRGSGTQFTLTISSLQAEDSGTYFCLQHNTYPLTFGPGTKVEIKR
Regarding B1, the “K i; inhibition of signalling induced by 10 nM ET-1 (cytosolic Ca2+, Fura-2-AM 340/380 nm ratio) in ET A expressed CHO-K1 stable cell line” value came to 56 nM and the “K i; inhibition of signalling induced by 10 nM ET-1 (cytosolic Ca2+, Fura-2-AM 340/380 nm ratio) in HT-29 colon cancer cells” value came out at 51 nM.

Source of the values: KR20180136327A (dated 2018).
